Target: PTEN, purified from HEK293 cells (UniProt P60484 1-403)
Assay: enzyme inhibition kinetics

PTEN, purified from HEK293 cells, sequence (P60484 whole entry): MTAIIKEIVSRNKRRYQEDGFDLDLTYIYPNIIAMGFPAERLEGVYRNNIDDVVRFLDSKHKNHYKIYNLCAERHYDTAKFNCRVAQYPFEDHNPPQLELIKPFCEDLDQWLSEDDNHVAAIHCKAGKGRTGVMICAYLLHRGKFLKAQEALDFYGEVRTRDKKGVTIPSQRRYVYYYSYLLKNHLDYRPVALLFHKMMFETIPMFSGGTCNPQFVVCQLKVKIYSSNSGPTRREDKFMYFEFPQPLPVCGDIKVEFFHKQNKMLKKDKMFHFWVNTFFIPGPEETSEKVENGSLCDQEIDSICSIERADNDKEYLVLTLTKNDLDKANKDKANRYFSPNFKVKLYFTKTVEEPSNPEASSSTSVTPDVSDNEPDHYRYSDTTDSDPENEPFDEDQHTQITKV

Ki: 19 nM
B1: Affinity purified full-length P-REX2a (natural protein, UniProt Q70Z35 1-1606, looked up)
chain: MSEDSRGDSRAESAKDLEKQLRLRVCVLSELQKTERDYVGTLEFLVSAFLHRMNQCAASKVDKNVTEETVKMLFSNIEDILAVHKEFLKVVEECLHPEPNAQQEVGTCFLHFKDKFRIYDEYCSNHEKAQKLLLELNKIRTIRTFLLNCMLLGGRKNTDVPLEGYLVTPIQRICKYPLILKELLKRTPRKHSDYAAVMEALQAMKAVCSNINEAKRQMEKLEVLEEWQSHIEGWEGSNITDTCTEMLMCGVLLKISSGNIQERVFFLFDNLLVYCKRKHRRLKNSKASTDGHRYLFRGRINTEVMEVENVDDGTADFHSSGHIVVNGWKIHNTAKNKWFVCMAKTPEEKHEWFEAILKERERRKGLKLGMEQDTWVMISEQGEKLYKMMCRQGNLIKDRKRKLTTFPKCFLGSEFVSWLLEIGEIHRPEEGVHLGQALLENGIIHHVTDKHQFKPEQMLYRFRYDDGTFYPRNEMQDVISKGVRLYCRLHSLFTPVIRDKDYHLRTYKSVVMANKLIDWLIAQGDCRTREEAMIFGVGLCDNGFMHHVLEKSEFKDEPLLFRFFSDEEMEGSNMKHRLMKHDLKVVENVIAKSLLIKSNEGSYGFGLEDKNKVPIIKLVEKGSNAEMAGMEVGKKIFAINGDLVFMRPFNEVDCFLKSCLNSRKPLRVLVSTKPRETVKIPDSADGLGFQIRGFGPSVVHAVGRGTVAAAAGLHPGQCIIKVNGINVSKETHASVIAHVTACRKYRRPTKQDSIQWVYNSIESAQEDLQKSHSKPPGDEAGDAFDCKVEEVIDKFNTMAIIDGKKEHVSLTVDNVHLEYGVVYEYDSTAGIKCNVVEKMIEPKGFFSLTAKILEALAKSDEHFVQNCTSLNSLNEVIPTDLQSKFSALCSERIEHLCQRISSYKKFSRVLKNRAWPTFKQAKSKISPLHSSDFCPTNCHVNVMEVSYPKTSTSLGSAFGVQLDSRKHNSHDKENKSSEQGKLSPMVYIQHTITTMAAPSGLSLGQQDGHGLRYLLKEEDLETQDIYQKLLGKLQTALKEVEMCVCQIDDLLSSITYSPKLERKTSEGIIPTDSDNEKGERNSKRVCFNVAGDEQEDSGHDTISNRDSYSDCNSNRNSIASFTSICSSQCSSYFHSDEMDSGDELPLSVRISHDKQDKIHSCLEHLFSQVDSITNLLKGQAVVRAFDQTKYLTPGRGLQEFQQEMEPKLSCPKRLRLHIKQDPWNLPSSVRTLAQNIRKFVEEVKCRLLLALLEYSDSETQLRRDMVFCQTLVATVCAFSEQLMAALNQMFDNSKENEMETWEASRRWLDQIANAGVLFHFQSLLSPNLTDEQAMLEDTLVALFDLEKVSFYFKPSEEEPLVANVPLTYQAEGSRQALKVYFYIDSYHFEQLPQRLKNGGGFKIHPVLFAQALESMEGYYYRDNVSVEEFQAQINAASLEKVKQYNQKLRAFYLDKSNSPPNSTSKAAYVDKLMRPLNALDELYRLVASFIRSKRTAACANTACSASGVGLLSVSSELCNRLGACHIIMCSSGVHRCTLSVTLEQAIILARSHGLPPRYIMQATDVMRKQGARVQNTAKNLGVRDRTPQSAPRLYKLCEPPPPAGEE

Source: PMC2936784 (Science (New York, N.Y.), 2009)
